Source: patent publication US20090252681A1 (Ablynx, published 2009)

Columns and labels:
[1] = target: T1, purified EGFR (Sigma) (human, UniProt P00533 25-1210, limits assumed)
T1 construct: native receptor purified from A431 cells; also called solid phase coated EGFR

[2] = target: T2, cell surface expressed EGFR (human, UniProt P00533 25-1210)
T2 construct: whole, on cells; also called EGFR on A431 tumor cells; EGFR on HER14 cells

[3] = target: T3, EGFR on A431 derived membrane vesicles (human, UniProt P00533 25-1210)
T3 construct: whole, on cells; presented in membrane vesicles coated on ELISA plates, not on intact cells; also called EGFR harboring A431 vesicles; EGFR expressing A431 vesicles

[4] = target: T4, Recombinant human IGF-IR (human, UniProt P08069 31-932); experiment: SPR (BIAcore), immobilized IGF-IR
T4 construct: bought; also called rhIGFIR; rhIGF-IR

koff [1] [s⁻¹]	Binder	other results
0.0031	27-1-H7 (VHH) VHH: EVQLVESGGGLVQAGGSLRLSCAASGRGAWAWFRQAPGKEREFVGGLSWSADSTYYADSVKGRFTISRDNAKNTVFLQMTNLKADDTAVYYCAAHRRPFASVFTTTRMYDYWGPGTQVTVSS	
	PMP9C1 (VHH) VHH: EVQLVESGGGLVQAGGSLRLSCAASGRTFSGFAMGWFRQAPGKEREFVAAISWSGGSLLYVDSVKGRFTISRDNAKNTVHLQMNSLKPGDTAVYYCAAMVGPPPRSLDYGLGNHYEYDYWGQGTQVTVSS	binding result [2]: binds; binding result [3]: binds
0.0015	PMP7A5 (VHH) VHH: EVQLVESGGGLVQAGGSLRLSCAASDRTFSSNNMGWFRQAPGKEREFVAAIGWGGLETHYSDSVKGRFTISRDNAKNTVYLQMNSLKPEDTARYYCAVSSTRTVIYTLPRMYNYWGQGTQVTVSS	
0.00017	PMP38G7 (VHH, also called EGR PMP38G7) VHH: EVQLVESGGGLVQAGGSLRLSCAASGRTFSSYVMGWFRQATGKEREFVATIAWDSGSTYYADSVKGRFTISRDNAKNTVHLQMNSLKPEDTAVYYCAASYNVYYNNYYYPISRDEYDYWGQGTQVTVSS	
0.0017	27-10-E8 (VHH, anti-EGFR Nanobody; tested as periplasmic extract or IMAC purified soluble Nanobody, tag not described; also called EGR 27-10-E8) VHH: EVQLVESGGGLVQAGGSLRLSCAASGRTFSTYTMAWFRQAPGKEREFVQGISRSDGGTYDADSVKGRFTISRDNAKNTVYLQMNSLKPEDTAVYFCAAASVKLVYVNPNRYSYWGQGTQVTVSS	IC50 (read off the curve) [3]: ~0.9 nM
0.0015	PMP7E12 (VHH) VHH: EVQLVESGGGLVQAGGSLRLSCTASGRTFENNAMAWFRQAAGKEREFVAGFSGSGGATYYAHSVEGRFTISRDNAKNTVDLQMNSLSLEDTAVYLCAARRKSGEVVFTIPARYDYWGQGTQVTVSS	
	PMP1C7 (VHH, anti-IGF-IR Nanobody; tag not described; also called IGR PMP1C7) VHH: QVKLEESGGGLVQAGGSLRLSCVASGRTFSRTAMAWFRQAPGKEREFVATITWNSGTTRYADSVKGRFFISKDSAKNTIYLEMNSLEPEDTAVYYCAATAAAVITPTRGYYNYWGQGTQVTVSS	koff [4]: 0.0019 s⁻¹
	PMP8C7 (VHH, also called EGR PMP8C7) VHH: QVKLEESGGGLVQAGGSLRLSCAASGRAFSSYVMGWFRQAPGKEREIVGAISWRGGSTYYADSVKGRFTISRDNAKNTVYLQMNSLKPEDTAVYYCAAVYRVGAISEYSGTDYYTDEYDYWGQGTQVTVSS	binding result [3]: binds
